± gives the uncertainty stated by the source.

The chains are these.
B1: Membrane-associated guanylate kinase, WW and PDZ domain-containing protein 1, residues 352 to 401; numbered along this chain, Q96QZ7 (parent)
chain: TEELDSELELPAGWEKIEDPVYGIYYVDHINRKTQYENPVLEAKRKKQLE
B2: Chromodomain-helicase-DNA-binding protein 5, residues 338 to 390; numbered along this chain, Q8TDI0 (parent)
chain: YETDHQDYCEVCQQGGEIILCDTCPRAYHLVCLDPELEKAPEGKWSCPHCEKE

The variants in one data set derive from B1. The data set is described as follows: abundance fitness (aPCA) (normalised: wild type 0, dead -1); higher = more abundant; growth selection in yeast, the domain comes from the species named. As to conditions: Homo sapiens.
In the case of E2C, the abundance fitness is 0.319 ± 0.12.
For E2H, the abundance fitness was -0.523 ± 0.24.
As for E2D, the abundance fitness was -0.314 ± 0.1.
The same measure, in the same setting: the value for E2A was -0.185 ± 0.052; that for E2L was -0.35 ± 0.15; that for E2G was -0.086 ± 0.057.
Still for that read-out and setting: with E2K the figure was -0.214 ± 0.17; with T1W, -0.351 ± 0.2; with T1G, -0.118 ± 0.056.
Same read-out and setting: the value for T1Y was -0.155 ± 0.074; that for T1I was -0.379 ± 0.27.
In the case of T1S, the abundance fitness worked out at 0.004 ± 0.078.
The same measure, in the same setting: with T1A the figure was -0.474 ± 0.22; with T1R, 0.104 ± 0.18.
Regarding T1E, the abundance fitness came to 0.069 ± 0.11.
As to T1M, the abundance fitness was -0.074 ± 0.16.
The same measure, in the same setting: the value for T1C was -0.35 ± 0.26.
Same read-out and setting: with T1L the figure was -0.128 ± 0.047; with T1V, -0.098 ± 0.089.

In a further data set the parent is B2. Described as above. The note with it: Homo sapiens.
Regarding E36K, the abundance fitness is 0.093 ± 0.17.
Take E36Y: the abundance fitness was -0.35 ± 0.15.
For E36A, the abundance fitness was -0.033 ± 0.12.
For E36I, the abundance fitness was -0.057 ± 0.24.
Consider E36G, for which the abundance fitness was determined as 0.014 ± 0.11.
On the same count and under the same terms, the value for E36N was -0.166 ± 0.19.
Regarding E36T, the abundance fitness is -0.042 ± 0.15.
Still for that read-out and setting: with E36H the figure was -0.18 ± 0.14; with E36Q, 0.046 ± 0.13.
The same measure, in the same setting: with E36F the figure was -0.237 ± 0.19; with E36S, -0.163 ± 0.13; with E36W, -0.321 ± 0.14.
In the case of E36D, the abundance fitness stood at 0.139 ± 0.16.
Turning to E36M, the abundance fitness came out at 0.069 ± 0.16.
Turning to E36V, the abundance fitness is 0.205 ± 0.12.
As for E36C, the abundance fitness was -0.067 ± 0.17.
With E36P, the abundance fitness amounted to 0.087 ± 0.13.
Still for that read-out and setting: with E36L the figure was -0.093 ± 0.11; with K39Y, -0.278 ± 0.2; with K39E, -0.096 ± 0.13.
On the same count and under the same terms, the value for K39W was -0.242 ± 0.18; that for K39C was -0.358 ± 0.21.
For the variant K39T, the abundance fitness is -0.029 ± 0.18.
The same measure, in the same setting: with K39G the figure was 0.03 ± 0.089.
On the same count and under the same terms, the value for K39S was -0.251 ± 0.15.
The same measure, in the same setting: with K39L the figure was -0.002 ± 0.14.
For the variant K39Q, the abundance fitness is -0.232 ± 0.3.
For K39I, the abundance fitness was -0.045 ± 0.24.
Same read-out and setting: the value for K39D was -0.208 ± 0.15; that for K39F was -0.315 ± 0.23.
As for K39V, the abundance fitness is -0.189 ± 0.11.
For the variant K39A, the abundance fitness is -0.081 ± 0.11.
Regarding K39M, the abundance fitness worked out at 0.191 ± 0.2.
On to K39P, for which the abundance fitness was -0.091 ± 0.19.
As to C47M, the abundance fitness is -0.945 ± 0.17.
Take C47F: the abundance fitness is -0.765 ± 0.28.
On the same count and under the same terms, the value for C47T was -0.43 ± 0.14.
Take C47E: the abundance fitness was -0.9 ± 0.18.
On the same count and under the same terms, with C47Q the figure was -0.918 ± 0.2; with C47L, -0.855 ± 0.12; with C47P, -0.96 ± 0.2.
Same read-out and setting: with C47V the figure was -0.773 ± 0.19; with C47N, -0.953 ± 0.35.
On the same count and under the same terms, with C47A the figure was -0.841 ± 0.15; with C47S, -0.609 ± 0.12; with C47G, -0.797 ± 0.14.
Consider C47K, for which the abundance fitness is -0.599 ± 0.22.
Still for that read-out and setting: with C47D the figure was 0.064 ± 0.21; with C47W, -0.58 ± 0.13; with C47H, -0.248 ± 0.18.
For C47Y, the abundance fitness was -1.2 ± 0.28.
C47I: the abundance fitness was -0.95 ± 0.38.
With C47R, the abundance fitness was -0.922 ± 0.11.
On to E51P, for which the abundance fitness was -0.367 ± 0.15.
On the same count and under the same terms, the value for E51Y was -0.207 ± 0.21.
With E51T, the abundance fitness was 0.088 ± 0.14.
Consider E51H, for which the abundance fitness was -0.367 ± 0.23.
E51D: the abundance fitness is -0.114 ± 0.15.
The same measure, in the same setting: the value for E51N was 0.086 ± 0.19; that for E51C was -0.123 ± 0.19; that for E51V was -0.209 ± 0.099.
Still for that read-out and setting: with E51R the figure was -0.396 ± 0.12; with E51Q, -0.005 ± 0.15; with E51G, -0.095 ± 0.1.
Regarding E51L, the abundance fitness was -0.105 ± 0.1.
Regarding E51A, the abundance fitness was -0.12 ± 0.093.
Still for that read-out and setting: the value for E51W was -0.25 ± 0.18.
On the same count and under the same terms, the value for E51M was -0.401 ± 0.17.
On the same count and under the same terms, with E51S the figure was -0.365 ± 0.11; with E51K, 0.031 ± 0.2; with E51I, -0.387 ± 0.16.
Take K52Q: the abundance fitness is -0.482 ± 0.2.
Still for that read-out and setting: with K52D the figure was -0.038 ± 0.15; with K52A, -0.182 ± 0.13; with K52G, 0.028 ± 0.099.
Regarding K52N, the abundance fitness was -0.378 ± 0.29.
Consider K52C, for which the abundance fitness was -0.381 ± 0.23.
The same measure, in the same setting: the value for K52L was -0.249 ± 0.14; that for K52M was 0.083 ± 0.18; that for K52I was -1.1 ± 0.42.
Take K52H: the abundance fitness is 0.223 ± 0.3.
The same measure, in the same setting: with K52F the figure was -0.248 ± 0.22; with K52W, -0.082 ± 0.17.
The same measure, in the same setting: with K52R the figure was -0.109 ± 0.13; with K52S, -0.115 ± 0.14.
Still for that read-out and setting: with K52E the figure was -0.288 ± 0.17.
Take K52P: the abundance fitness is -0.5 ± 0.2.
On the same count and under the same terms, the value for K52V was -0.324 ± 0.12; that for K52T was 0.473 ± 0.14.
On to G43E, for which the abundance fitness is 0.029 ± 0.15.
Still for that read-out and setting: the value for G43V was 0.029 ± 0.11; that for G43N was 0.23 ± 0.15.
On to G43T, for which the abundance fitness was found to be 0.235 ± 0.13.
Same read-out and setting: with G43Y the figure was -0.323 ± 0.18; with G43I, -0.169 ± 0.16; with G43R, -0.11 ± 0.098.
With G43K, the abundance fitness came to 0.057 ± 0.17.
Consider G43D, for which the abundance fitness was found to be 0.044 ± 0.14.
For the variant G43F, the abundance fitness is -0.138 ± 0.14.
Turning to G43L, the abundance fitness was -0.096 ± 0.11.
The same measure, in the same setting: with G43S the figure was 0.087 ± 0.1; with G43A, -0.192 ± 0.13; with G43H, 0.166 ± 0.16.
On the same count and under the same terms, with G43Q the figure was -0.074 ± 0.15.
For the variant G43C, the abundance fitness was -0.117 ± 0.12.
Still for that read-out and setting: with G43M the figure was -0.088 ± 0.17.
Still for that read-out and setting: the value for G43W was -0.223 ± 0.14; that for G43P was 0.032 ± 0.12; that for H49D was 0.422 ± 0.32.
Take H49S: the abundance fitness was -0.312 ± 0.24.
Still for that read-out and setting: the value for H49A was -0.011 ± 0.2.
Still for that read-out and setting: the value for H49E was -0.225 ± 0.26; that for H49L was -0.176 ± 0.2.
The same measure, in the same setting: the value for H49N was 0.104 ± 0.32; that for H49P was -0.024 ± 0.26; that for H49R was -0.291 ± 0.16.
Turning to H49Q, the abundance fitness is 0.032 ± 0.23.
Take H49T: the abundance fitness came out at 0.139 ± 0.26.
On the same count and under the same terms, the value for H49W was -0.69 ± 0.3.
Same read-out and setting: with H49Y the figure was -0.042 ± 0.2; with H49M, -0.234 ± 0.42.
With H49K, the abundance fitness turned out to be 0.041 ± 0.41.
As to H49V, the abundance fitness is -0.45 ± 0.18.
On the same count and under the same terms, with H49G the figure was 0.071 ± 0.16; with E38V, -0.157 ± 0.12; with E38A, -0.024 ± 0.13.
As for E38S, the abundance fitness is -0.225 ± 0.14.
On the same count and under the same terms, the value for E38M was 0.042 ± 0.16; that for E38W was -0.127 ± 0.15; that for E38P was 0.188 ± 0.15.
Same read-out and setting: with E38Q the figure was -0.008 ± 0.15.
For the variant E38N, the abundance fitness was -0.271 ± 0.26.
For the variant E38C, the abundance fitness was -0.221 ± 0.17.
Still for that read-out and setting: the value for E38L was -0.115 ± 0.13; that for E38F was -0.053 ± 0.17; that for E38K was -0.199 ± 0.22.
As to E38I, the abundance fitness is -0.294 ± 0.24.
On the same count and under the same terms, the value for E38R was -0.147 ± 0.1.
Same read-out and setting: with E38H the figure was -0.207 ± 0.2; with E38T, -0.252 ± 0.17.
Turning to P41I, the abundance fitness amounted to 0.117 ± 0.21.
As for P41C, the abundance fitness was -0.379 ± 0.17.
Same read-out and setting: the value for P41H was 0.056 ± 0.17; that for P41V was -0.096 ± 0.12.
In the case of P41T, the abundance fitness was -0.17 ± 0.2.
Take P41W: the abundance fitness is -0.323 ± 0.15.
On the same count and under the same terms, the value for P41K was -0.118 ± 0.17.
Turning to P41L, the abundance fitness is -0.135 ± 0.1.

These data come from the Human Domainome abundance scans (Beltran et al. 2025).
